Data as given in patent EP3466970A1 (Orum Therapeutics Inc., dated 2019).

Molecular target: T1, mCherry (red fluorescence) H-RAS G12V expressed in NIH3T3 cells (UniProt P01112 1-186, limits assumed)
T1 construct: Intracellular target at the inner cell membrane; also called intracellular H-RAS G12V mutants
Assay: confocal microscopy, colocalisation in NIH3T3 cells expressing mCherry H-RAS G12V

B1: cytosol-penetrating antibody (cytotransmab) TMab4 (antibody, V domains shown)
VH: EVQLVESGGGLVQPGGSLRLSCAASGYTFTSYVMHWVRQAPGKGLEWVSAINPYNDGNYYADSVKGRFTISRDNSRKTLYLQMNSLRAEDTAVYYCARGAYKRGYAMDYWGQGTTVTVSS
VL: DLVMTQSPSSLSASVGDRVTITCKSSQSLFNSRTRKNYLAWYQQKPGKAPKLLIYWASTRESGVPSRFSGSGSGTDFTLTISSLQPEDFATYYCQQYYYHMYTFGQGTKVEIKR
notes: Intact IgG-format monoclonal antibody; Used as negative control in the RAS assays; also called CT
B1: no binding (tested: 2 µM).
